{
  "source": "patent US20140127777A1",
  "about": "(CALIFORNIA INSTITUTE OF TECHNOLOGY, published 2014)",
  "proteins": {"B1": {"name": "A1-WT (designed binder)", "chain": "MRGSHHHHHHGSMASGDLENEYAQLEREVRSLEDEAAELEQKVSRLKNEIEDLAEIGDLNNTSGIRRPAAKLN", "notes": "Expressed in E. coli from pQE-A1 with an N-terminal His-tag; Forms dimeric coiled coils; entered as the single chain; also called wild-type A1"}, "B2": {"name": "FA1-92 (designed binder)", "chain": "B1 chain", "modifications": "leucines (eight per chain) replaced by 5,5,5-trifluoroleucine to 92% by amino acid analysis; mixed population of (2S,4S) and (2S,4R) diastereomers", "notes": "Expressed in an E. coli leucine auxotroph in medium with trifluoroleucine; The sample is heterogeneous; its main MALDI peak of 8736 corresponds to 8 substitutions; also called 92% fluorinated A1"}},
  "key": {"[1]": {"biological_target": "the molecule itself", "test": "CD thermal unfolding, global two-state fit of the monomer to dimer transition, 1 M standard state", "procedure": "Circular Dichroism (CD) Analysis. CD spectra were recorded on an Aviv 62DS spectropolarimeter (Lakewood, N.J.) in PBS buffer, pH 7.4. All peptide concentrations were determined by amino acid analysis of a stock solution (5 mg/ml). Experiments were performed in a rectangular cell with pathlength of 1 cm for low concentration samples and pathlength of 1 mm for high concentration samples. Spectra were scanned from 250 nm to 200 nm with data taken every 1 nm. The temperature of the solution was maintained by a thermostatically controlled cuvette holder (HP model 89101A). Temperature scans were performed from 0° C. to 100° C. in 1° C. steps. Three scans were performed on a single sample and averaged. Each data point was collected after 30 seconds of thermal equilibration at the desired temperature. Urea titration scans were performed manually starting with the 8 M concentrated sample followed by serial dilution to the desired urea concentration. At each concentration, the sample was allowed to equilibrate for 5 min before recording the CD signal."}, "[2]": {"biological_target": "the molecule itself", "test": "CD thermal unfolding, global two-state fit of the monomer to dimer transition; difference against A1-WT at 37 °C"}},
  "data": [
    {"protein": "B1", "values": [
      {"measurement": "ΔG° (37° C.)", "setting": "[1]", "value": -10.7, "unit": "kcal/mol"}
    ]},
    {"protein": "B2", "values": [
      {"measurement": "ΔG° (37° C.)", "setting": "[1]", "value": -13.1, "unit": "kcal/mol"},
      {"measurement": "ΔΔG°", "setting": "[2]", "value": -2.4, "unit": "kcal/mol"}
    ]}
  ]
}
